Test results: US20250059559A1 (FLAGSHIP PIONEERING INNOVATIONS V, published 2025)

B1: Ring 2 ORF1 fused to an N-terminal HIS6-tag (HIS-ORF1) (other)
chain: MPYYYRRRRYNYRRPRWYGRGWIRRPFRRRFRRKRRVRPTYTTIPLKQWQPPYKRTCYIKGQDCLIYYSNLRLGMNSTMYEKSIVPVHWPGGGSFSVSMLTLDALYDIHKLCRNWWTSTNQDLPLVRYKGCKITFYQSTFTDYIVRIHTELPANSNKLTYPNTHPLMMMMSKYKHIIPSRQTRRKKKPYTKIFVKPPPQFENKWYFATDLYKIPLLQIHCTACNLQNPFVKPDKLSNNVTLWSLNTISIQNRNMSVDQGQSWPFKILGTQSFYFYFYTGANLPGDTTQIPVADLLPLTNPRINRPGQSLNEAKITDHITFTEYKNKFTNYWGNPFNKHIQEHLDMILYSLKSPEAIKNEWTTENMKWNQLNNAGTMALTPFNEPIFTQIQYNPDRDTGEDTQLYLLSNATGTGWDPPGIPELILEGFPLWLIYWGFADFQKNLKKVTNIDTNYMLVAKTKFTQKPGTFYLVILNDTFVEGNSPYEKQPLPEDNIKWYPQVQYQLEAQNKLLQTGPFTPNIQGQLSDNISMFYKFYFKWGGSPPKAINVENPAHQIQYPIPRNEHETTSLQSPGEAPESILYSFDYRHGNYTTTALSRISQDWALKDTVSKITEPDRQQLLKQALECLQISEETQEKKEKEVQQLISNLRQQQQLYRERIISLLKDQ
notes: also called Ring 2 HIS-ORF1; not shown: N-terminal HIS6-tag
B2: untagged Ring2 ORF1 (other)
chain: B1 chain
notes: also called LY2 ORF1
B3: Ring 10 ORF1 fused to an N-terminal HIS6-tag (HIS-ORF1) (other)
chain: MPWWYRRRSYNPWRRRNWFRRPRKTIYRRYRRRRRWVRRKPFYKRKIKRLNIVEWQPKSIRKCRIKGMLCLFQTTEDRLSYNFDMYEESIIPEKLPGGGGFSIKNISLYALYQEHIHAHNIFTHTNTDRPLARYTGCSLKFYQSKDIDYVVTYSTSLPLRSSMGMYNSMQPSIHLMQQNKLIVPSKQTQKRRKPYIKKHISPPTQMKSQWYFQHNIANIPLLMIRTTALTLDNYYIGSRQLSTNVTIHTLNTTYIQNRDWGDRNKTYYCQTLGTQRYFLYGTHSTAQNINDIKLQELIPLTNTQDYVQGFDWTEKDKHNITTYKEFLTKGAGNPFHAEWITAQNPVIHTANSPTQIEQIYTASTTTFQNKKLTDLPTPGYIFITPTVSLRYNPYKDLAERNKCYFVRSKINAHGWDPEQHQELINSDLPQWLLLFGYPDYIKRTQNFALVDTNYILVDHCPYTNPEKTPFIPLSTSFIEGRSPYSPSDTHEPDEEDQNRWYPCYQYQQESINSICLSGPGTPKIPKGITAEAKVKYSFNFKWGGDLPPMSTITNPTDQPTYVVPNNFNETTSLQNPTTRPEHFLYSFDERRGQLTEKATKRLLKDWETKETSLLSTEYRFAEPTQTQAPQEDPSSEEEEESNLFERLLRQRTKQLQLKRRIIQTLKDLQKLE
notes: also called Ring 10 HIS-ORF1; not shown: N-terminal HIS6-tag
B4: full-length Ring 10 ORF1 (residues 1-672) (other)
chain: B3 chain
notes: also called Ly1 ORF1; full-length ORF1
B5: Ring2 ORF1 with a deletion of the C-terminus amino acids 611-666 (pRTx-2652), Ring2 AnelloVLP (other)
chain: MPYYYRRRRYNYRRPRWYGRGWIRRPFRRRFRRKRRVRPTYTTIPLKQWQPPYKRTCYIKGQDCLIYYSNLRLGMNSTMYEKSIVPVHWPGGGSFSVSMLTLDALYDIHKLCRNWWTSTNQDLPLVRYKGCKITFYQSTFTDYIVRIHTELPANSNKLTYPNTHPLMMMMSKYKHIIPSRQTRRKKKPYTKIFVKPPPQFENKWYFATDLYKIPLLQIHCTACNLQNPFVKPDKLSNNVTLWSLNTISIQNRNMSVDQGQSWPFKILGTQSFYFYFYTGANLPGDTTQIPVADLLPLTNPRINRPGQSLNEAKITDHITFTEYKNKFTNYWGNPFNKHIQEHLDMILYSLKSPEAIKNEWTTENMKWNQLNNAGTMALTPFNEPIFTQIQYNPDRDTGEDTQLYLLSNATGTGWDPPGIPELILEGFPLWLIYWGFADFQKNLKKVTNIDTNYMLVAKTKFTQKPGTFYLVILNDTFVEGNSPYEKQPLPEDNIKWYPQVQYQLEAQNKLLQTGPFTPNIQGQLSDNISMFYKFYFKWGGSPPKAINVENPAHQIQYPIPRNEHETTSLQSPGEAPESILYSFDYRHGNYTTTALSRISQDWALKDTVSK
notes: also called Ring2 delCterm (Δ611-666) (7047); Ring2 AnelloVLP 2652
B6: Ring 10 ORF1 delARM delCTD (residues 2-45 and 552-672 deleted) (other)
chain: MKIKRLNIVEWQPKSIRKCRIKGMLCLFQTTEDRLSYNFDMYEESIIPEKLPGGGGFSIKNISLYALYQEHIHAHNIFTHTNTDRPLARYTGCSLKFYQSKDIDYVVTYSTSLPLRSSMGMYNSMQPSIHLMQQNKLIVPSKQTQKRRKPYIKKHISPPTQMKSQWYFQHNIANIPLLMIRTTALTLDNYYIGSRQLSTNVTIHTLNTTYIQNRDWGDRNKTYYCQTLGTQRYFLYGTHSTAQNINDIKLQELIPLTNTQDYVQGFDWTEKDKHNITTYKEFLTKGAGNPFHAEWITAQNPVIHTANSPTQIEQIYTASTTTFQNKKLTDLPTPGYIFITPTVSLRYNPYKDLAERNKCYFVRSKINAHGWDPEQHQELINSDLPQWLLLFGYPDYIKRTQNFALVDTNYILVDHCPYTNPEKTPFIPLSTSFIEGRSPYSPSDTHEPDEEDQNRWYPCYQYQQESINSICLSGPGTPKIPKGITAEAKVKYSFNFKWGGDLPPMST
notes: also called Ring 10 delARM delCTD

Assays:
[1] = target: the molecule itself; assay: self-assembly; negative-stain EM
[2] = target: the molecule itself; assay: self-assembly; heparin and SEC purification, EM
[3] = target: the molecule itself; assay: self-assembly; EM

| Protein | binding result [1] | other results |
| --- | --- | --- |
| B1 | binds | – |
| B2 | – | binding result [2]: binds |
| B3 | binds | – |
| B4 | binds | – |
| B5 | – | binding result [3]: binds |
| B6 | binds | – |
